From US8394929B2, “Nogo receptor-mediated blockade of axonal growth” (Yale University, priority 2000, dated 2013) come the findings set out here.

The subject of this experiment is mNgR deletion mutants. Description: AP-hNogo-A (1055-1120) binding to COS-7 cells transfected with other mNgR deletion mutants. The arrangement: species or system mouse. From the text: The NgΔRNT construct encodes residues 58 to 473 of mNgR. The NgRANT construct was made by using the primers ΔLRR-NT5 (5′-[…]-3′) and NgR3X (5′-[…]-3′) to amplify a sequence from the wtNgR-pSecTag2Hygro plasmid. The amplified sequence was ligated into the XhoI/BamHI of pSecTag2.
The NgLRR-construct encodes residues 306 to 473 of mNgR. The NgLRR construct was made by using the primers, MycNgR305 (5′-[…]-3′) and NgR3X (above) to amplify a sequence from the from the wtNgR-pSecTag2Hygro plasmid. The amplified sequence was ligated into the XhoI/BamHI of pSecTag2.
The mNgR LLR deletions and NgRΔLRRCT deletion mutants were generated using ExSite™ PCR-based site-directed mutagenesis kit (Stratagene, La Jolla, Calif.). Generally, the primers described below were used to amplify a sequence from the wtNgR pSecTag2 plasmid. The ends of the amplified products were ligated together. The resulting constructs were transfected into COS-7 cells.
The NgRΔ1-2 construct encodes residues 1 to 56 and residues 106 to 473 of mNgR. The primers used for making the NgRΔ1-2 construct were DEL LRR (5′PO4) (5′-[…]-3′) and DEL LRR2 (5′-[…]-3′). […]
To determine whether mNgR or mNgR deletion mutants bound to hNogo-A (1055-1120), wtNgR or mNgR deletion mutants were transfected into COS-7 cells. […] AP-fusion protein was detected as previously described for AP-Sema3A (Takahashi et al., Nature Neurosci. 1:487-493, 1998).

B1: AP-Nogo: fusion protein of His6 tag, placental alkaline phosphatase (AP) and the 66 amino acid active domain of Nogo (protein)
chain: HHHHHHIIPVEEENPDFWNREAAEALGAAKKLQPAQTAAKNLIIFLGDGMGVSTVTAARILKGQKKDKLGPEIPLAMDRFPYVALSKTYNVDKHVPDSGATATAYLCGVKGNFQTIGLSAAARFNQCNTTRGNEVISVMNRAKKAGKSVGVVTTTRVQHASPAGTYAHTVNRNWYSDADVPASARQEGCQDIATQLISNMDIDVILGGGRKYMFRMGTPDPEYPDDYSQGGTRLDGKNLVQEWLAKRQGARYVWNRTELMQASLDPSVTHLMGLFEPGDMKYEIHRDSTLDPSLMEMTEAALRLLSRNPRGFFLFVEGGRIDHGHHESRAYRALTETIMFDDAIERAGQLTSEEDTLSLVTADHSHVFSFGGYPLRGSSIFGLAPGKARDRKAYTVLLYGNGPGYVLKDGARPDVTESESGSPEYRQQSAVPLDEETHAGEDVAVFARGPQAHLVHGVQEQTFIAHVMAFAACLEPYTACDLAPPAGTTDAAHPGRIYKGVIQAIQKSDEGHPFRAYLESEVAISEELVQKYSNSALGHVNCTIKELRRLFLVDDLVDSLK
For B1, the “binding (in words)” value is “did not”.
